Data taken from patent US20150216933A1, “HEMATOPOIETIC STEM CELL GROWTH FACTOR” (DUKE UNIVERSITY, priority 2008, published 2015).

Assays:
BM 34−KSL cells [1] = test: Competitive repopulating unit (CRU) assay of 34−KSL cell progeny cultured with TSF or TSF+PTN (Example 2); type: in vivo, mouse
Method: BM 34^−KSL cells were either isolated for injection into recipient animals, or placed into cultures containing TSF alone, TSF+PTN, TSF+HUBECs+goat IgG, or TSF+HUBECs+goat anti-PTN. Recipient C57BL6 animals (CD45. 2^+) received 950 cGy total body irradiation (TBI) and were then injected via tail vein with limiting doses of BM 34^−KSL cells or their progeny following culture. 1×10^5 host BM MNCs were co-injected-into recipient mice as competitor cells. Multilineage hematologic reconstitution was measured in the PB by flow cytometry over time post-transplant as previously described (Reya, et al, Nature 423:409-14 (2003), Salter et al, Blood 113:2104-7 (2009)). Animals were considered to be engrafted if donor CD45. 1^+ cells were present at ≧1% in the PB (Chute et al, Blood 100:4433-9 (2002), Chute et al, Blood 105: 576-83 (2005), (Chute et al, Proc Natl Acad Sci USA 103, 11707-12 (2006)). CRU estimates were performed using L-Calc software (Stem Cell Technologies) as previously described (Reya, et al, Nature 423:409-14 (2003), Chute et al, Blood 109:2365-72 (2007), Chute et al, Proc Natl Acad Sci USA 103, 11707-12 (2006)).
In order to determine if treatment with PTN could induce functional HSC expansion in culture, competitive repopulating unit (CRU) assays were performed using limiting dilutions of donor CD45. 1^+ BM 34^−KSL cells transplanted into lethally irradiated CD45. 2^+ C57Bl6 mice. Peripheral blood (PB) was collected from primary recipient mice at 4 weeks, 12 weeks and 24 weeks to assess the engraftment of donor CD45. 1^+ cells in the PB of recipient mice. […] 1^+ donor cell engraftment in the PB compared to mice transplanted with the identical dose of day 0 34^−KSL cells and mice transplanted with the progeny of 34^−KSL cells cultured with TSF alone (FIG. 6C, P=0.0008 and P=0.001, respectively). […] The PB engraftment of multilineage donor CD45. […] As expected, the CRU frequency within the progeny of 34^−KSL cells following culture with cytokines alone (TSF) was reduced to 1 in 58 cells (95% CI: 1/31 to 1/108). Conversely, the CRU frequency within the progeny of 34^−KSL cells cultured with TSF+PTN was 1 in 10 cells (95% CI: 1/5 to 1/20). Therefore, the addition of PTN induced a 4-fold increase in HSCs compared to input and a 6-fold increase compared to the progeny of TSF alone. […] 1^+ cell reconstitution at all time points through 24 weeks compared to mice transplanted with day 0 34^−KSL cells or their progeny following culture with TSF alone (FIG. 6F). This corresponded to an increased CRU frequency in the PTN-treated progeny compared to input 34^−KSL cells at all time points. […]

BM 34−KSL cells [2] = test: Liquid suspension culture of BM 34−KSL cells with TSF with and without PTN x 7 days; type: cell-based, mouse
Method: The above “loss of function” studies strongly implicated PTN as a secreted growth factor for HSCs.
Purified BM 34^−KSL cells were isolated from C57Bl6 and B6.SJL mice (Jackson Laboratory, Bar Harbor, Me.) via flow cytometric cell sorting as previously described (Reya, et al, Nature 423:409-14 (2003), Salter et al, Blood 113:2104-7 (2009)). Liquid suspension cultures of BM 34^−KSL cells were supplemented with IMDM+10% FBS+1% pcn/strp+20 ng/ml thrombopoietin, 120 ng/ml SCF, and 50 ng/ml flt-3 ligand (“TSF” media) with and without recombinant (human) PTN (R&D Systems, Minneapolis, Minn.). Non-contact HUBEC cultures were conducted using 0.4 μm transwell inserts (Corning, Lowell Mass.) and supplemented with TSF media with and without goat anti-PTN or isotype control antibody (R&D). Phenotypic analysis for KSL cells was performed as previously described (Chute et al, Blood 109:2365-72 (2007), Salter et al, Blood 113:2104-7 (2009)).
Since PTN has no known function in regulating hematopoiesis (Meng et al, Proc Natl Acad Sci USA 97: 2603-8 (2000)), an examination was first made as to whether BM stem/progenitor cells expressed one or more of the PTN receptors, receptor protein tyrosine phosphatase β/ζ (RPTP β/ζ), Syndecan or anaplastic lymphoma kinase (ALK) (Stoica et al, J Biol Chem 276:16772-9 (2001), Landgraf et al, J Biol Chem 283:25036-45 (2008)). The majority of BM MNCs and c-kit+sca-1^+lin^− (KSL) stem/progenitor cells expressed RPTP β/ζ (n=3, mean 87.0%±8.8 and 89%, respectively; FIG. 6A), whereas neither population expressed Syndecan or ALK (data not shown). In order to determine whether PTN might be a growth factor for HSCs, C57Bl6 BM CD34^−KSL cells, which are highly enriched for HSCs (Kiel et al, Nat Rev Immunol 8:290-301 (2008), Salter et al, Blood 113:2104-7 (2009)), were isolated by FACS and placed in liquid suspension culture with 20 ng/mL thrombopoietin, 120 ng/mL SCF and 50 ng/mL Flt-3 ligand (“TSF”) with or without 10, 100 or 1000 ng/mL PTN.

[3] = 100 ng/mL PTN added to TSF, 7 days
[4] = increasing doses (10, 100, 1000 ng/mL) of rPTN with TSF, Example 1

B1: PTN: Pleiotrophin, heparin binding growth factor; recombinant human PTN purchased from R&D systems (protein, UniProt P21246 33-168, looked up)
Pleiotrophin: GKKEKPEKKVKKSDCGEWQWSVCVPTSGDCGLGTREGTRTGAECKQTMKTQRCKIPCNWKKQFGAECKYQFQAWGECDLNTALKTRTGSLKRALHNAECQKTVTISKPCGKLTKPKPQAESKKKKKEGKKQEKMLD
increase in HSCs compared to input (BM 34−KSL cells [1]; 12 week CRU): 4 fold
increase in HSCs compared to the progeny of TSF alone (BM 34−KSL cells [1]; 12 week CRU): 6 fold
increase in CD45.1+ donor cell engraftment in the PB (BM 34−KSL cells [1]; 12 weeks post-transplant, vs day 0 34−KSL cells and progeny of TSF alone, 100 ng/mL PTN): > 10 fold
CRU frequency, fold increased compared to input 34−KSL cells (BM 34−KSL cells [1]; 24 weeks post-transplant): 4 fold
increase in total KSL stem/progenitor cells compared to TSF alone (BM 34−KSL cells [2]; [3]): 17.7 fold
increase in total cells compared to TSF alone (BM 34−KSL cells [2]; [3]): 6.4 fold
total cells, % KSL cells and total KSL cells (BM 34−KSL cells [2]; addition of 10 to 100 ng/mL PTN to TSF): dose responsive increase
KSL cells in culture compared to the progeny of cytokines alone (BM 34−KSL cells [2]; [4]): significant increase
total cells in culture compared to the progeny of cytokines alone (BM 34−KSL cells [2]; [4]): significant increase
